Assay results: US20020081617A1, “Fluorescence and FRET based assays for biomolecules on beads” (priority 2000, published 2002)
Values joined by “and” are separate entries in the source; they are usually repeats but may differ in a detail not shown here. Equal values may be shown once. One block for each compound: values may come before it.

Legend:
[1] = target: streptavidin coated beads (Streptomyces avidinii, UniProt P22629); experiment: Binding of biotinylated ligands to streptavidin-coated beads (centrifugation assays); settings: read-out: binding affinity (Kd) to streptavidin coated beads
Experimental: Binding analysis of biotinylated biomolecules to streptavidin-bearing beads were performed. Centrifugation assays using paired spectrofluorimetric and flow cytometric analysis were carried out to compare and corroborate the flow cytometric data against the traditional spectroflurometric measurements.
The flow cytometric analysis used a Becton-Dickinson FACScan flow cytometer obtained from Sunnyvale, Calif. that interfaced to a Power PC Macintosh using the CellQuest software package. The FACScan is equipped with a 15 mW air-cooled argon ion laser. The laser output is fixed at 488 nm. It has been shown that the mean of the histogram is the quantity relevant to binding capacity. The average fluorescence of a single bead is converted to the number of fluorophores per bead on the basis of flow cytometric calibration beads obtained from Quantum 825 Flow Cytometry Standards Corporation, San Juan, PR. […] [formula]
MCFLb mean channel fluorescence are the means of the histograms of the bound ligand Lb, corrected for nonspecific binding and standard calibration beads referred to as std, observed at similar detection settings. MESF stands for mean equivalent of soluble fluorophores and is the number of fluorescein molecules whose emission intensity is equal to MCFstd on each bead.
The magnitude of bound sites per bead were determined from centrifugation assays.

[2] = target: streptavidin on 6.2 µm streptavidin-coated beads (UniProt P22629); experiment: centrifugation assay with spectrofluorimetry and flow cytometry; biotinylated peptide on streptavidin-coated beads (binding through biotin)
[3] = target: non-biotinylated fluorescent 5-FLAG peptide (soluble); experiment: centrifugation assay, spectrofluorimetry of residual supernatants; soluble fluorescent FLAG peptide on M2-bearing beads
[4] = target: biotinylated and fluorescein-tagged 5-FLAG peptide on streptavidin-coated beads; experiment: affinity micro-column of fluorescein FLAG peptide beads, FRET endpoints, sigmoidal dose-response curve
[5] = target: biotinylated and fluorescein-tagged 5-FLAG peptide on streptavidin-coated beads; experiment: FRET quenching on 5-FLAG bearing beads, flow cytometry, buffer with Ca2+, sigmoidal analysis
[6] = target: biotinylated and fluorescein-tagged 5-FLAG peptide on streptavidin-coated beads; experiment: flow cytometry of bead-borne FLAG peptides incubated with TR-M1 mAbs, FRET quenching (FIG. 18)
[7] = target: biotinylated and fluorescein-tagged 5-FLAG peptide on streptavidin-coated beads; experiment: FRET quenching of 5-FLAG on beads by TR-M1 (FIG. 8)
[8] = target: biotinylated and fluorescein-tagged 5-FLAG peptide on streptavidin-coated beads; experiment: affinity micro-column of fluorescein FLAG peptide beads, real-time FRET, kinetic model fit
[9] = target: non-biotinylated fluorescent 5-FLAG peptide (soluble); experiment: FRET titration of TR-M1 into fluorescent FLAG peptide in solution, spectrofluorimetry, 1 mM Ca2+
[10] = target: biotinylated and fluorescein-tagged 5-FLAG peptide on streptavidin-coated beads; experiment: FRET quenching on 5-FLAG bearing beads, flow cytometry, calcium-free buffer, sigmoidal analysis
[11] = target: Texas-Red labeled M1 anti-FLAG monoclonal antibody (IgG); experiment: competition: TR-M1 pre-equilibrated with thousand-fold excess soluble non-fluorescent FLAG peptide, then passed over bead-borne fluorescein FLAG peptide; FRET
[12] = target: fluorescein biotin-bearing beads (Streptomyces avidinii, UniProt P22629); experiment: Detection of native biotin via fluorescence unquenching of fluorescein biotin in affinity micro-column; type: binding; settings: 2 μL aliquot of 3 mM native biotin
Description: Streptavidin coated beads bearing ≈1×10^6 fluorophores/bead were packed into the micro-channel.
(§1) Ostrich quenching is dependent on the length and structure of the ligand. […] Addition of native biotin recovers the original intensity under diffusion-limited kinetics. The extent of quenching and recovery on beads depends on site occupancy of the fluorescein biotin. […] The five-fold increase in intensity was consistent with a result from a flow cytometry measurement (data not shown). […] The magnitude of n2 relative to n1 is likely due to the disruption of the packing of beads upon initial contact with the plug of sample. It is likely that such disruption can be minimized through optimization of bead packing and sample injection procedures.

[13] = target: streptavidin (Streptomyces avidinii, UniProt P22629); experiment: Ostrich quenching of fluorescein biotin bound to streptavidin; type: binding; settings: bound to excess soluble streptavidin
Description: Under certain circumstances, binding of fluorescent ligands to streptavidin is characterized by the quenching of fluorescence of bound relative to free ligands. Typically, this type of quenching referred to as “ostrich quenching” occurs when the fluorophore (e.g., fluorescein) moiety of a biotinylated ligand associates with the receptor pocket adjacent to the biotin-moiety bearing site. Such a method is described in the following reference: Buranda, T., Jones, G., Nolan, J., Keij, J., Lopez, G. P., and Sklar, L. A. (1999) Ligand Receptor Dynamics at Streptavidin Coated Particle Surfaces: A Flow Cytometric and Spectrofluorimetic Study J. Phys. Chem. B. 103, 3399-3410, the entire contents and disclosure of which is hereby incorporated by reference.
as §1

Sequence of streptavidin on 6.2 µm streptavidin-coated beads (P22629 37-163 limits assumed): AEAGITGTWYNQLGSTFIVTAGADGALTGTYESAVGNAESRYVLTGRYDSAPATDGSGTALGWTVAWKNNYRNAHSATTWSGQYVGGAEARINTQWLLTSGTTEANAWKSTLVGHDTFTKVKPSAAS

Compound: Biotinylated and fluorescein-tagged FLAG peptide (epitope DYKDDDDK) tethered to streptavidin-coated beads [5-FLAG]
Kd [1]: 0.3 nM and ~0.3 nM

Compound: biotinylated and fluorescein-tagged 5-FLAG peptide on streptavidin-coated beads
Kd [2]: 0.3 nM

Compound: O=C(O)CCCC[C@@H]1SC[C@@H]2NC(=O)N[C@@H]21 [native biotin, biotin]
increase in intensity of fluorescein biotin-bearing beads [12]: fivefold

Compound: O=C(CCCCCNC(=O)CCCC[C@@H]1SC[C@@H]2NC(=O)N[C@@H]21)NCCCCCNC(=S)Nc1ccc2c(c1)C(=O)OC21c2ccc(O)cc2Oc2cc(O)ccc21 [fluorescein biotin]
Kd [1]: ~0.5 nM | quenching of the fluorescence [13]: > 90%

Continued, values first:

Kd [3]: 8 nM
Compound: biotinylated anti-FLAG M2 IgG on streptavidin-coated beads (antibody)

Kd [4]: 10 nM | Kd [5]: 4 nM | Kd [6]: 4 nM | quenching of peptide fluorescence at saturation [7]: > 60% | Kd [8]: 13.3 nM | koff [8]: 0.0012 s⁻¹ | kon [8]: 90000 M⁻¹ s⁻¹ | Kd [9]: 9 nM | Kd [10]: 37 nM
Compound: Texas-Red labeled M1 anti-FLAG monoclonal antibody (IgG)

FRET signal remaining with thousand fold excess of soluble peptide [11]: < 10%
Compound: dark non-fluorescent FLAG peptide (soluble)
